{"source": "patent US20240390520A1", "about": "“GENE EDITING OF PCSK9 OR ANGPTL3 AND COMPOSITIONS AND METHODS OF USING SAME FOR TREATMENT OF DISEASE” (Verve Therapeutics, Inc., priority 2021, published 2024)", "molecules": {"B1": {"name": "GA690: ANGPTL3 sgRDNA spacer sequence variant with minimally modified tracrRNA (nucleic acid)", "guide": "AAGATACCTGAATAACCCTCGTTTTAGAGCTAGAAATAGCAAGTTAAAATAAGGCTAGTCCGTTATCAACTTGAAAAAGTGGCACCGAGTCGGTGCTTTT", "modifications": "DNA-containing spacer with minimally modified tracrRNA, spacer pattern not given here"}}, "system": "OT1 site", "assay": "Off-target OT1 editing, MessengerMax transfection in PHH, Targeted Amplicon sequencing", "assay_type": "cell-based, human", "conditions": "PHH lot STL, MessengerMax with mRNA MA079, 5,000 and 2,500 ng/mL total RNA", "procedure": "The genomic DNA from PHH cells transfected with one of 20 sgRDNA spacer sequence variants were also tested for off-target editing percentage by targeted amplicon sequencing (FIGS. 31-32). The genomic DNA samples assessed were from cells that received doses of the total RNA of 5,000 ng/mL and 2,500 ng/mL. OT1 primer (GA0100_OT_B2) was used to measure editing percentage (A>G) in position 1-10 of the OT1 site (Table. 4). Technical replicates were performed.\nTable. […] VEP Gene and VEP Consequence refer to the genomic location and functional role of OT1 as determined by the Ensembl Variant Effect Predictor (VEP) tool v98.3. […] The CADD score was determined using the Combined Annotation-Dependent Depletion v1.6 (CADD) framework, which aims to annotate and interpret human genetic variation through the integration of diverse annotations into a single measure. […] To bioinformatically assess the potential for oncogenesis due to editing at the off-target site, it was assessed whether OT1 is located within a gene in the Cancer Gene Census of the Catalogue of Somatic Mutations in Cancer (COSMIC) v92; it is not. […]"}
{"molecule": "B1", "values": [{"measurement": "off-target editing (A>G) at OT1, positions 1-10", "value": "indeed edited at OT1"}]}
